Assay [1] has as its target Jurkat TCRb knockout cells. Description: flow cytometry, Jurkat KO (TCRb knockout) cells, negative control, 1 ug/mL. On the technique in general: A flow cytometer gives signals particle by particle.
Assay [2] addresses Jurkat TCRb knockout cells. Description: flow cytometry, Jurkat KO (TCRb knockout) cells, negative control, 10 ug/mL.
Assay [3] has as its target Jurkat TCRb knockout cells. In words: flow cytometry on Jurkat KO (TCRb knockout) cells, negative control, antibody at 1 ug/ml.
For assay [4], the target named is Jurkat TCRb knockout cells. Description: flow cytometry on Jurkat KO (TCRb knockout) cells, negative control, antibody at 10 ug/ml.

B1: Gemtuzumab (antibody, V domains shown)
VH: EVQLVQSGAEVKKPGSSVKVSCKASGYTITDSNIHWVRQAPGQSLEWIGYIYPYNGGTDYNQKFKNRATLTVDNPTNTAYMELSSLRSEDTAFYYCVNGNPWLAYWGQGTLVTVSS
VL: DIQLTQSPSTLSASVGDRVTITCRASESLDNYGIRFLTWFQQKPGKAPKLLMYAASNQGSGVPSRFSGSGSGTEFTLTISSLQPDDFATYYCQQTKEVPWSFGQGTKVEVKR
As for B1, the gMFI in assay [1] came out at 1860 gMFI; in assay [2], 1830 gMFI. In addition, the values for the flow cytometry signal in assay [3] and in assay [4] were 3000 and 2820, respectively.

For the origin of these results see patent US20260167721A1.
